Laboratory results: article PMC3035606, “Structural Basis of Response Regulator Dephosphorylation by Rap Phosphatases” (PLoS Biology, 2011)
Where a chain is given by its changes, count along the chain named. Numbers in names are those of the source. Read-outs that look alike come from different tables or passages of the source.

T1: Spo0F~P (radiolabeled phosphorylated Spo0F-His) (B. subtilis) (UniProt P06628)
T1 sequence (chain, phosphoaspartate-54 (32P)): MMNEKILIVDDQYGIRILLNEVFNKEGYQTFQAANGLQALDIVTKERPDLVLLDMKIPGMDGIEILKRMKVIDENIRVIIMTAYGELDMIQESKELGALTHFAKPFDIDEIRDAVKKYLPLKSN

T2: RapJ (B. subtilis), O34327
T2 chain: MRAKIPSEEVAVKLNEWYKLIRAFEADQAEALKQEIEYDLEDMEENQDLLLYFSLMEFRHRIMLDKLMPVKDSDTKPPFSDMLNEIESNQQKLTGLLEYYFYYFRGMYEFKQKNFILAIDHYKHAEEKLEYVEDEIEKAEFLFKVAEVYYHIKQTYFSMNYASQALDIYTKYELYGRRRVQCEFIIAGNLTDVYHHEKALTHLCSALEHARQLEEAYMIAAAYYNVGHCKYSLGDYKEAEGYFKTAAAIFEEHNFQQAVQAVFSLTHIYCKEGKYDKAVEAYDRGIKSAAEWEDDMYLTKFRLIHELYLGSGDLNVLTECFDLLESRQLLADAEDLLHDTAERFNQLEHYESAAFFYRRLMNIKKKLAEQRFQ

B1: RapH-E137A (enzyme)
chain: GSMSQAIPSSRVGVKINEWYKMIRQFSVPDAEILKAEVEQDIQQMEEDQDLLIYYSLMCFRHQLMLDYLEPGKTYGNRPTVTELLETIETPQKKLTGLLKYYSLFFRGMYEFDQKEYVEAIGYYREAEKELPFVSDDIAKAEFHFKVAEAYYHMKQTHVSMYHILQALDIYQNHPLYSIRTIQSLFVIAGNYDDFKHYDKALPHLEAALELAMDIQNDRFIAISLLNIANSYDRSGDDQMAVEHFQKAAKVSREKVPDLLPKVLFGLSWTLCKAGQTQKAFQFIEEGLDHITARSHKFYKELFLFLQAVYKETVDERKIHDLLSYFEKKNLHAYIEACARSAAAVFESSCHFEQAAAFYRKVLKAQEDILKGECLYAY
B2: RapH-D134A (enzyme)
chain: B1 chain with D136A, A139E
B3: RapH-F58A (enzyme)
chain: B1 chain with F60A, A139E
B4: RapH-L50A (enzyme)
chain: B1 chain with L52A, A139E
B5: RapH-Y175A (enzyme)
chain: B1 chain with A139E, Y177A
B6: RapH (enzyme, B. subtilis)
chain: B1 chain with A139E
notes: two heterologous N-terminal residues (Gly-Ser) derived from the thrombin cleavage signal; RapH, B. subtilis strain 168, residues 1-376 (MW theor 44.1 kDa); Dimer in the crystal and in solution; also called RapHA; RapHB; source: E. coli BL21, purified (glutathione resin, thrombin, Source 15Q, Superdex 200; dialysis instead of gel filtration for the phosphatase and phosphotransfer assays); not …
B7: RapF-H50L (enzyme)
chain: MTGVISSSSIGEKINEWYMYIRRFSIPDAEYLRREIKQELDQMEEDQDLLLYYSLMEFRHNLMLEYLEPLEKMRIEEQPRLSDLLLEIDKKQARLTGLLEYYFNFFRGMYELDQREYLSAIKFFKKAESKLIFVKDRIEKAEFFFKMSESYYYMKQTYFSMDYARQAYEIYKEHEAYNIRLLQCHSLFATNFLDLKQYEDAISHFQKAYSMAEAEKQPQLMGRTLYNIGLCKNSQSQYEDAIPYFKRAIAVFEESNILPSLPQAYFLITQIHYKLGKIDKAHEYHSKGMAYSQKAGDVIYLSEFEFLKSLYLSGPDEEAIQGFFDFLESKMLYADLEDFAIDVAKYYHERKNFQKASAYFLKVEQVRQLIQGGVSLYEIEV
B8: RapF (natural protein)
chain: B7 chain with L50H
B9: Spo0F (natural protein, B. subtilis)
chain: GSMMNEKILIVDDQYGIRILLNEVFNKEGYQTFQAANGLQALDIVTKERPDLVLLDMKIPGMDGIEILKRMKVIDENIRVIIMTAYGELDMIQESKELGALTHFAKPFDIDEIRDAVKKYLPLKSN
notes: two heterologous N-terminal residues (Gly-Ser) derived from the thrombin cleavage signal; Spo0F, B. subtilis strain 168, residues 1-124; The methods name the vector pETDuet-1 but purify over glutathione resin and remove a GST tag; also called Spo0FA; Spo0FB; source: E. coli BL21(DE3), purified (glutathione resin, thrombin, Source 15Q and HiTrap Heparin flow-through, Superdex 200); …
B10: selenomethionyl Spo0F-D54E (natural protein, B. subtilis)
chain: B9 chain with D56E
modifications: selenomethionyl (selenomethionine derivatized)
notes: two heterologous N-terminal residues (Gly-Ser) derived from the thrombin cleavage signal; purified in an identical manner to Spo0F; Spo0F, B. subtilis strain 168, residues 1-124, with D54E; Used for SAD phasing; PDB 3Q15 holds the parent (wild-type Spo0F); source: E. coli BL21(DE3), purified as Spo0F (buffer D with 120 mM MgCl2); not shown: GST, N-terminal, cleaved
B11: RapJ, O34327 1-373 (enzyme)
chain: T2 chain

Experiments:
[1] = target: T1, Spo0F~P (radiolabeled phosphorylated Spo0F-His) (B. subtilis)
[2] = target: T1, Spo0F~P (radiolabeled phosphorylated Spo0F-His) (B. subtilis); remark: listed apart in the source
[3] = target: the molecule itself; assay: crystal structure; vapor diffusion at 20°C; 7.5 mg/ml RapH and 3.5 mg/ml Spo0F in 20 mM Tris-HCl (pH 8.0), 100 mM KCl, 2.5 mM DTT, 5 mM MgCl2; well 20% PEG 3350, 200 mM lithium sulphate, 100 mM Bis-Tris (pH 6.0); refined to 2.20 Å
[4] = target: T1, Spo0F~P (radiolabeled phosphorylated Spo0F-His) (B. subtilis); remark: listed apart in the source
[5] = target: B6; assay: crystal structure; vapor diffusion at 20°C; 7.5 mg/ml RapH and 3.5 mg/ml Spo0F in 20 mM Tris-HCl (pH 8.0), 100 mM KCl, 2.5 mM DTT, 5 mM MgCl2; well 20% PEG 3350, 200 mM lithium sulphate, 100 mM Bis-Tris (pH 6.0); refined to 2.20 Å; conditions: both partners purified
[6] = target: B6; assay: crystal structure; crystals of native RapH with selenomethionyl Spo0F(D54E), as the native crystals but Bis-Tris at pH 5.8; SAD phasing, initial model at 2.70 Å; isomorphous to the native crystals; conditions: both partners purified
[7] = target: T2, RapJ (B. subtilis), O34327; assay: SEC; size exclusion chromatography with gel filtration standards; experimental against theoretical molecular weight; conditions: remark: other sources report otherwise

Binder: B1
Spo0F~P remaining after 40 min, in vitro phosphatase assay (wild-type control 7%) (% of Spo0F~P remaining) [1]: 15

Binder: B2
Spo0F~P remaining after 30 min, in vitro phosphatase assay (wild-type control 3%) (% of Spo0F~P remaining) [1]: 13

Binder: B3
Spo0F~P remaining after 30 min, in vitro phosphatase assay (wild-type control 3%) (% of Spo0F~P remaining) [2]: 28

Binder: B4
Spo0F~P remaining after 30 min, in vitro phosphatase assay (wild-type control 13%) (% of Spo0F~P remaining) [2]: 26

Binder: B5
Spo0F~P remaining after 30 min, in vitro phosphatase assay (wild-type control 3%) (% of Spo0F~P remaining) [1]: 54

Binder: B6
stoichiometry N [3]: 2

Binder: B7
Spo0F~P remaining after 30 min, in vitro phosphatase assay (26 uM RapF); RapF-H50L dephosphorylates Spo0F (% of Spo0F~P remaining) [4]: 16

Binder: B8
Spo0F~P remaining after 30 min, in vitro phosphatase assay (26 uM RapF); wild-type RapF does not dephosphorylate Spo0F (% of Spo0F~P remaining) [4]: 54

Binder: B9
binding result [5]: binds

Binder: B10
binding result [6]: binds

Binder: B11
stoichiometry N [7]: 2
